From patent US9944712B2, “TLR3 binding agents” (INNATE PHARMA, priority 2012, dated 2018) come the findings set out here.

One experiment concerns COPD mouse model. Kind of experiment: COPD mouse model (Elastin and LPS). The experiment is classed as in vivo. The settings on record: drug combination study, FIG. 5E. How it is done: All mice were treated at days 0, 7, 14 and 21 with Elastin and LPS (i.n.), to induce COPD. At day 28 mice were sacrificed for analysis.
The cellular infiltrates into airways was measured by analysis of bronchoalveolar lavage (BAL) fluid by differential cell count on day 28. The oxygenation of venous blood was measured by gasometry on day 28. The level inflammatory mediators in BALF, through the analysis for protein levels of TNF-alpha, IL-6, IL-17A and IP-10 was performed by multiplex assay. […] Statistical analysis was performed on all data utilizing a Student's t test: ‘*’ p<0.05; ‘**’ p<0.005; ‘***’ p<0.0005.
Four groups of mice were treated as follows: • 1 group of mice with a vehicle (PBS, i.p., twice per week). • 1 group of mice with the anti-mouse TLR3 28G7 antibody administration (i.p., 500 μg/per mouse, […]; antagonist of PDE-4) (3 mg/kg, oral, five times per week). • 1 group of mice with both roflumilast and 28G7 antibody, each agent according to the schedule used as single agent.
All mice were treated with Elastin and LPS (i.n.), to induce COPD and sacrificed as in study A.
The cellular infiltrates into airways was measured by analysis of bronchoalveolar lavage (BAL) fluid by differential cell count as in Study A.

In experiment [1] the target is T1, human TLR3 solely at the cell surface (TLR3/CD32-expressing 293T cells) (Homo sapiens, UniProt O15455).
T1 construct: transiently transfected with the wild-type or mutant TLR3 ECD-CD32 construct; expressed in transfected cells; host or cells: HEK293T, transient, pcDNA3.1
Kind of experiment: Titration on HEK293T cells expressing TLR3 ECD-CD32 solely at the cell surface (FACS). The format is binding. The settings on record: neutral pH. How it is done: (§1) The mature wild-type or mutant TLR3 sequence was fused to the CD32 transmembrane and intracellular domains as described by De Bouteiller et al. (2005) J. Biol. Chem. 280(46): 38133-38145. A first round of PCR was performed to introduce a V5 tag in N-terminal position of the TLR3-CD32 fusion protein and a second round—using the first PCR as a template—to introduce the TLR3 leader peptide in the construct. The PCR product was TA-cloned into the pGEMTeasy vector for sequencing and finally cloned into the pcDNA3.1 vector using the NheI and NotI restriction sites.
(§2) Following two wash cycles, cell MFI was analyzed on a FACS Canto II cytometer. With the aim to study the effect of pH on mAb affinity, staining was performed in staining buffer (0.2% BSA, 2 mM EDTA, 0.02% Sodium Azoture) pH7.4 or in citric acid-acidified staining buffer pH5.6.
Additionally, binding (e.g. affinity) to cell surface TLR3 at neutral pH may differ from that of endosomally-expressed TLR3 at acidic pH. Antibodies were tested for binding to cells expressing human TLR3 solely at the cell surface (TLR3/CD32-expressing 293T cells), at neutral pH conditions since pH could potentially affect TLR3 conformation.

The target in a further experiment is human TLR3 (Homo sapiens, UniProt O15455). Nature of the experiment: 293T-TLR3-ISRE luciferase reporter assay. The experiment is classed as cell-based. The settings on record: dsRNA TLR3 agonists. From the text: A reporter gene assay using as promoter ISRE (IFN-stimulated response element) and as reporter gene and protein luciferase was set up. A 293T cell line (ATCC, #CRL-1573) was stably transfected with pISRE-luc plasmid (#219089—Stratagene), further selected by cloning as inducing optimal response to IFN-alpha stimulation and referred to as control 293T-ISRE. This cell line was further stably transfected with pUNO-humanTLR3 plasmid (#puno-htlr3—InVivogen) and referred to as 293T-TLR3-ISRE.
Efficacy assay was performed as described: on day 0, cells are seeded at 4×10^5 cells/mL in complete culture medium in 96-well culture plate (100 μl/well). Cells are first incubated at 37° C. for 20 hours, then 50 μL of medium are discarded and cells are activated with 25 μl/well final of fixed amounts of polyAU together with increasing concentrations of anti-TLR3 antibodies. Cells incubated with fresh medium will be used as background luciferase activity (50 μl/well). Cells are incubated at 37° C. for 6 hours. 100 μL of freshly thawed Steady Glo (Promega) are added to each well, plates were incubated 10 min at RT in the dark and the light emitted in each well is quantified as Count Per Second (CPS) on a gamma-counter (TopCount) apparatus.
Antibodies were tested for inhibition of TLR3 signaling in a luciferase based reporter gene activity (293T-TLR3-ISRE). Engagement of TLR3 receptor using TLR3-agonists such as poly (I:C) has been reported to activate the type-IFN pathway including the promoter ISRE (Wietek et al. J. Biol. Chem., 278 (51), p50923, 2003). Briefly, dsRNA TLR3 agonists were used to induce TLR3 signaling in the reporter assay in the presence of anti-TLR3 antibodies, and TLR3 signaling was assessed. […] Each antibody is compared with reference antibody 31C3.
Background: A reporter such as luciferase makes a cellular process visible.

The test system of another experiment is TLR3 mutant polypeptides. Kind of experiment: FACS staining of cells expressing TLR3 mutant polypeptides (epitope mapping). The format is binding, human. The note with it: for binding to wild type TLR3 and mutants K145E, D116R, E171A, K182E or N196A: FACS; for binding to TLR3 in presence of the mutation K145E or K182E: hybridoma clone screening. How it is done:
Mutagenesis was performed on wild type human TLR3 inserted into a pcDNA3.1 vector. After sequencing, the vectors containing the mutated sequences were prepared as Maxiprep using the Promega PureYield™ Plasmid Maxiprep System. Vectors were then used for HEK-293T cell transfection using Invitrogen's Lipofectamine 2000 according to the manufacturer instructions.
All the Mx-R primers were used with the following 5′ primer […] (SEQ ID NO: 121). All the Mx-F primers were used with the following 3′ primer […] (SEQ ID NO: 122). The sequences amplified were run on agarose gel then purified using the Qiagen Gel Extraction kit. The two PCR product generated for each mutant were then ligated into a pcDNA3.1 vector, digested with the restriction enzyme NheI and NotI, with the InFusion system (Clontech) according to the manufacturer's instructions.
After sequencing, the vectors containing the mutated sequences were prepared as Maxiprep using the Promega PureYield™ Plasmid Maxiprep System. Vectors were then used for HEK-293T cell transfection using Invitrogen's Lipofectamine 2000 according to the manufacturer instructions.
as §1, §2
Secondary screening was performed as in immunization #1, above. Potentially interesting hybridomas were cloned by limiting dilution techniques in 96-wells plates, and clones were tested in the same series of secondary screens as for hybridomas. With the aim to compare hybridomas to our reference anti-TLR3 mAbs, the hybridomas were amplified and their supernatants were purified. Purified mAbs were tested in a gene-reporter assay.
Antibodies were then tested for binding to further set of mutants in the N-terminal portion of TLR3 to identify new epitopes. Antibodies were therefore tested for binding to TLR3 mutants. TLR3 mutant polypeptides having mutations in positions Q44H and V45I, R64Q and R65Q, T86S and K89Q, K97I and M100L, K117Q and A120V, Q136H, N140S, V144K and K145N, K147A, K163A, Q167G, Q184L and K187R, Q184L and K187Q, D192E and A195G, Q208P and 1209L, H218Q, A219T, G234N and S236H, L243W and A246S, S112A. Q113S. and S115A, and K137S and K139A (reference to SEQ ID NO: 1) were prepared as described herein in the Materials and Methods and anti-TLR3 antibody staining to cells expressing TLR3 mutant polypeptides was assessed by FACS.

Turning to `O=C(Nc1c(Cl)cncc1Cl)c1ccc(OC(F)F)c(OCC2CC2)c1` [Roflumilast, roflumilast], the “infiltration of neutrophils into the airways (BAL differential cell count)” value with COPD mouse model (28G7 i.p. 500 μg twice per week, roflumilast 3 mg/kg oral five times per week) is on record as “decreased infiltration of neutrophils”. Moreover, in the experiment on COPD mouse model, the “BAL macrophages and lymphocytes” value was “decreases in macrophages”.

B1: 32C4: rat anti-human TLR3 monoclonal antibody; VH SEQ ID NO: 25, VL SEQ ID NO: 26 (antibody, listed as Rattus norvegicus, V domains shown)
VH: EVQLQQYGAELGKPGTSVKLSCKVSGYNIWSTYIYWVNQRPGKGLEWIGRIDPANGNTIYAEKFKTKATLTADTSSNTAYMQLSQLKSDDTAIYFCAMGDHGGYVMDAWGQGASVTVSS
VL: DIQMTQSPGSLSASLGETVSIECLASEDIYSYLAWYQQKPGKSPQLLIYAANRLEDGVPSRFSGSGSGTQYSLKISGMQPEDEGDYFCLQGSEFPYTFGTGTKLELK
Consider B1, for which the “binding to surface-expressed human TLR3” value in experiment [1] is recorded as “strong binding”. Further, in the experiment with human TLR3, the “inhibition of dsRNA-induced TLR3 signaling, potency compared with antibody 31C3” value (“inhibition … compared with antibody 31C3” below) was “more potent”. Further, in the experiment with TLR3 mutant polypeptides, the “binding to wild type TLR3 and mutants K145E, D116R, E171A, K182E or N196A” value (from here on “binding … K182E or N196A”) is recorded as “did not show any loss of binding”; the “binding to TLR3 in presence of the mutation K145E or K182E” value (shortened to “binding to TLR3 in presence”) was “bound TLR3”.

B2: 11E1: mouse anti-human TLR3 monoclonal antibody; VH SEQ ID NO: 3, VL SEQ ID NO: 4 (antibody, listed as Mus musculus, V domains shown)
VH: QVQLQQPGAELVRPGASVKLSCKASGYTFTNYWMNWVKQRPGQGLEWIGMIDPSDSETHYNQMFKDKATLTVDKSSSTAYMQLSSLTSEDSAVYYCARGGASSDYYYFDYWGQGTTLTVSSASTK
VL: ETTVTQSPASLSMAIGEKVTIRCITSTDIHDDINWYQQKPGEPPKLLISEGNTLRPGVPSRFSSSGYGTDFVFTIENMLSEDVADYYCLQSDNLPRTFGGGTKLEIKRT
Take B2: the “binding to surface-expressed human TLR3” value in experiment [1] is on record as “strong binding”. In addition, the “inhibition … compared with antibody 31C3” value with human TLR3 was “more potent”. Moreover, in the experiment with TLR3 mutant polypeptides, the “binding … K182E or N196A” value was “did not show any loss of binding”; the “binding to TLR3 in presence” value is reported as “bound TLR3”.

B3: 7G11: rat anti-human TLR3 monoclonal antibody; VH SEQ ID NO: 47, VL SEQ ID NO: 48 (antibody, listed as Rattus norvegicus, V domains shown)
VH: EVQLQQYGAELGKPGTSVKLSCKVSGYNITYTYMHWVNQRPGKGLEWIGRIDPANGNTIYGEKFKNKATLTADTSSNTAYMQLSQLKSDDTAIYFCAMGEFDYFDHWGQGVMVTVSS
VL: DIQMTQSPASLSASLGETVSIECLASEDISNDLAWYQQKSGKSPQVLIYAASRLEDGVPSRFSGSGSGTRYSLKISGMQPEDEADYFCQQSYKYPVTFGSGTKLEIK
Turning to B3, in experiment [1], the “binding to surface-expressed human TLR3” value is on record as “strong binding”. In addition, the “inhibition … compared with antibody 31C3” value in the experiment with human TLR3 is given as “more potent”. Also, in the experiment with TLR3 mutant polypeptides, the “binding … K182E or N196A” value is recorded as “did not show any loss of binding”; the “binding to TLR3 in presence” value was “bound TLR3”.

B4: 31F6: rat anti-human TLR3 monoclonal antibody; VH SEQ ID NO: 14, VL SEQ ID NO: 15 (antibody, listed as Rattus norvegicus, V domains shown)
VH: EVQLQQSGAELGKPGTSVKLSCKVSGYNIRYTYMHWVNQRPGKGLEWIGRIDPANGDSIYGEDFKTKATLTADTSSNTAYMQLSQLKSDDTAIYFCAMGEFDYFDYWGQGVMVTVSSASTK
VL: DIQMTQSPPSLSASLGETVSIECLASEGISNDLAWYQQRSGKSPQLLIYAASRLQDGVPSRFSGSGSGTRYSLKISGMQPEDEADYFCQQNYKYPLTFGSGTKLEIK
For the molecule B4, in experiment [1], the “binding to surface-expressed human TLR3” value is “strong binding”. Besides, the “inhibition … compared with antibody 31C3” value with human TLR3 is recorded as “more potent”. For the same molecule, in the experiment on TLR3 mutant polypeptides, the “binding … K182E or N196A” value is on record as “did not show any loss of binding”; the “binding to TLR3 in presence” value was “bound TLR3”.

B5: 37B7: rat anti-human TLR3 monoclonal antibody; VH SEQ ID NO: 36, VL SEQ ID NO: 37 (antibody, listed as Rattus norvegicus, V domains shown)
VH: QVQLQQSGTELVKPGSSVKISCKASGYTFTSNYMHWIRQLPGNGLEWIGWIFPGDGDTNYNQKFNGKATLTADKSSSTAYMQLSSLTSEDYAVYFCARSDGDWYFDFWGPGTMVTVSS
VL: DIQMTQSPGSLSASLGETVTIQCQASEDIYSGLAWYQQKPRKSPQLLISAASRLQDGVPSRFSGSGSGTQYSLKISSMQTEDEGVYFCQQGVKYPNTFGPGTKLELK
Consider B5, for which, in the experiment with human TLR3, the “inhibition … compared with antibody 31C3” value is “more potent”. Further, in the experiment with TLR3 mutant polypeptides, the “binding … K182E or N196A” value is “did not show any loss of binding”; the “binding to TLR3 in presence” value is listed as “bound TLR3”.
